Experimental data: patent publication US20050186180A1

Biological target: murine B7-2 (recombinant, expressed from rV-B7-2 in BSC-1 cells) (murine) (UniProt P42082)
Test: flow cytometry, BSC-1 cells infected with rV-B7-2 (10 MOI), FITC-conjugated antibody

Sequence of UniProt P42082 (P42082 24-309): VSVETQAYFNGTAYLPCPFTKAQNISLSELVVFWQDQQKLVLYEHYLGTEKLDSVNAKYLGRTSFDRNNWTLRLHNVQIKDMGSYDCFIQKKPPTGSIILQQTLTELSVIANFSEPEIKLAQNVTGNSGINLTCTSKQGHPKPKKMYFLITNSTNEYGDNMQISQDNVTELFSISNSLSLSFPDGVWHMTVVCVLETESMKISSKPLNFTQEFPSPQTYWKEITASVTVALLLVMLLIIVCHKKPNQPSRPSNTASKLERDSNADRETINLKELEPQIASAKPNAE

## Rat-anti-mouse B7-2 (GL-1) monoclonal antibody (Pharmingen)
  mean fluorescence: 1800
  percent of cells positive: 98.8%
